Results reported in paper PMC9419707 (Nature, 2022).

Target: T1, His6–GFP–POU2F3 (UniProt Q9UKI9 1-436)
T1 sequence (looked up): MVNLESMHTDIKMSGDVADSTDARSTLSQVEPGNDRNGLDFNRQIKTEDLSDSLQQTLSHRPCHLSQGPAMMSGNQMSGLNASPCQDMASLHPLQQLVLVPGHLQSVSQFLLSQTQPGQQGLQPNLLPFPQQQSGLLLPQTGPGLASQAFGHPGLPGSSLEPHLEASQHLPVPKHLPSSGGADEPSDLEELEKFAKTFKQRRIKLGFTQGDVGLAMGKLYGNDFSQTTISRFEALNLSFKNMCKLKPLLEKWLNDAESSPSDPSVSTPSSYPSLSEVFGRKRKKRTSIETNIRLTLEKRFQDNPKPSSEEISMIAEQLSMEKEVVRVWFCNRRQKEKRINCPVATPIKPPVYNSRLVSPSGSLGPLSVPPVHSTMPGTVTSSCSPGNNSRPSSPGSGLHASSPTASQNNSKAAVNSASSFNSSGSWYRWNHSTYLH
Test: SEC

- binding result: binds
B1: Strep2SUMO–OCA-B (natural protein, UniProt Q16633 1-256, looked up)
chain: MLWQKPTAPEQAPAPARPYQGVRVKEPVKELLRRKRGHASSGAAPAPTAVVLPHQPLATYTTVGPSCLDMEGSVSAVTEEAALCAGWLSQPTPATLQPLAPWTPYTEYVPHEAVSCPYSADMYVQPVCPSYTVVGPSSVLTYASPPLITNVTTRSSATPAVGPPLEGPEHQAPLTYFPWPQPLSTLPTSTLQYQPPAPALPGPQFVQLPISIPEPVLQDMEDPRRAASSLTIDKLLLEEEDSDAYALNHTLSVEGF
